Patent US20200157519A1
Where a chain is given by its changes, count along the chain named.

B1: scFv clone 7A3 (scFv, V domains shown)
VH: EVQLVESGGGLVQPGGSLRLSCAASGFTINDWSIHWVRQAPGKGLEWVAYIGPFWGSTFYADSVKGRFTISADTSKNTAYLQMNSLRAEDTAVYYCARGYFGFDYWGQGTLVTVSS
VL: DIQMTQSPSSLSASVGDRVTITCRASQDVGGWVAWYQQKPGKAPKLLISSPRSLYSGVPSRFSGSGSGTDFTLTISSLQPEDFATYYCQQYFSSPFTFGQGTKVEIKR
B2: scFv clone 8F2 (scFv, V domains shown)
VH: EVQLVESGGGLVQPGGSLRLSCAASGFTINNYGIHWVRQAPGKGLEWVAGIWPYWGYTYYADSVKGRFTISADTSKNTAYLQMNSLRAEDTAVYYCARFDSNSYSSYSDGFMDYWGQGTLVTVSS
VL: B1 VL with G30D, G31N, W32S, P51A, F92Y, S93N, S94Y, F96I
B3: scFv clone 3C2 (scFv, V domains shown)
VH: EVQLVESGGGLVQPGGSLRLSCAASGFTIGNSSIHWVRQAPGKGLEWVAGIWPYWGSTYYADSVKGRFTISADTSKNTAYLQMNSLRAEDTAVYYCARFGINNDGFMDYWGQGTLVTVSS
VL: B1 VL with G30S, P51T, R52G, F92Y, S93D, S94F, F96I
B4: phage-displayed 3D5 scFv (scFv)
scFv: DIQMTQSPSSLSASVGDRVTITCRASQDVSNNVAWYQQKPGKAPKLLIFWSPWLYSGVPSRFSGSGSGTDFTLTISSLQPEDFATYYCQQGWDSPVTFGQGTKVEIKRGGGGSGGGGSGGGGSEVQLVESGGGLVQPGGSLRLSCAASGFTISDFGIHWVRQAPGKGLEWVASIWPSGGYTYYADSVKGRFTISADTSKNTAYLQMNSLRAEDTAVYYCARSWFYSWYDYWGQGTLVTVSS

Each binder was assayed against human fibrinogen (human) (UniProt P02671) (assay: single colony ELISA, secreted scFv on coated fibrinogen (negative control antigen), anti-E-tag-HRP).
Chain of human fibrinogen (human) (P02671 20-629 limits assumed, chain 1 of 3): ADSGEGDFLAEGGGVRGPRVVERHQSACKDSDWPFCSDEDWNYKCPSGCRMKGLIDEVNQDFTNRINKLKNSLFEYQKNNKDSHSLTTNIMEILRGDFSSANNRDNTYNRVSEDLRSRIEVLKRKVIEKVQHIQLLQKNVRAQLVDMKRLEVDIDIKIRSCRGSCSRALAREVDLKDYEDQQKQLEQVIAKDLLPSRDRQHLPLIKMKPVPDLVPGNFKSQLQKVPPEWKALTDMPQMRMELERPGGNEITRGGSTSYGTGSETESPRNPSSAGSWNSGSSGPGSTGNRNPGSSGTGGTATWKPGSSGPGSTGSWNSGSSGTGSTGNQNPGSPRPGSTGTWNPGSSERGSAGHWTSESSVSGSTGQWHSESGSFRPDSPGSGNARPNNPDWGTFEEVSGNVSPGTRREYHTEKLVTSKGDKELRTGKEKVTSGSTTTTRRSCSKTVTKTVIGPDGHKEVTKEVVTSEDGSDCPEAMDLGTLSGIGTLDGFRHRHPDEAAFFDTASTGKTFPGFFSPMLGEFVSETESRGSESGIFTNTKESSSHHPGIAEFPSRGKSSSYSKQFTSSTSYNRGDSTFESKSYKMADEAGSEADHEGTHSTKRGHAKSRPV
Chain of human fibrinogen (human) (P02675 31-491 limits assumed, chain 2 of 3, further chain): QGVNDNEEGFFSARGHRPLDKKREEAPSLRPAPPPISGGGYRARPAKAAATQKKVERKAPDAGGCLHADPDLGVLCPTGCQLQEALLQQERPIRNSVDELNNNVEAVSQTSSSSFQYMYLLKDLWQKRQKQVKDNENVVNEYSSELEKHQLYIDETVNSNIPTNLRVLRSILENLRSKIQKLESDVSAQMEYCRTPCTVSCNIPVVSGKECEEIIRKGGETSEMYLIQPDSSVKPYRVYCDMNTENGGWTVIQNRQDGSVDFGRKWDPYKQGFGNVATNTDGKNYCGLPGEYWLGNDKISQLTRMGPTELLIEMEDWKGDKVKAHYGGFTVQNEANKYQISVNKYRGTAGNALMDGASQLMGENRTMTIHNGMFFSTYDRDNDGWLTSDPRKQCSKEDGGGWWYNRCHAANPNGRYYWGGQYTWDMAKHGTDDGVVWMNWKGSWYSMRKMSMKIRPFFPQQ
Chain of human fibrinogen (human) (P02679 other isoform, or with tags, fused parts or gaps limits assumed, chain 3 of 3, further chain): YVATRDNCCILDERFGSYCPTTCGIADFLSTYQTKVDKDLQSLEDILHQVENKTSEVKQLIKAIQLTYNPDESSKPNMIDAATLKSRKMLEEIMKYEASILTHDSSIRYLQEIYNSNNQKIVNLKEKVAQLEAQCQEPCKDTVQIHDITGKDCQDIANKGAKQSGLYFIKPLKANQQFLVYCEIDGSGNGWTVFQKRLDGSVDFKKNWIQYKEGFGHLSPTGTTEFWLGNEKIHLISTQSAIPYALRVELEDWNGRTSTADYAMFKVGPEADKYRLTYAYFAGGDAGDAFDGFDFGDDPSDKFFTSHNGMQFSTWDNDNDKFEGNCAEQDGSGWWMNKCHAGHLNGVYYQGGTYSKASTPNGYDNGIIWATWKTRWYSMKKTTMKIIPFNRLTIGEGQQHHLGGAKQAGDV

Point of comparison: B1, OD450 Fibrinogen 0.0209 OD450. Against it:
- B2 — higher, 0.0366 OD450
- B3 — lower, 0.0117 OD450
- B4 — lower, 0.0022 OD450
